Data taken from publication doi:10.1101/2021.05.25.445618.

How the values were obtained:
[1] = molecular target: C-terminally myc-tagged ClpP2 (ClpP2-2×myc) (L. monocytogenes EGD-e); assay: affinity purification with mass spectrometry
[2] = molecular target: L. monocytogenes ClpP1 of the co-expressed ClpP1/2 preparation (L. monocytogenes); assay: SEC
[3] = molecular target: L. monocytogenes ClpP1, separately overexpressed and purified (ClpP1_(7)) (L. monocytogenes); assay: SEC
[4] = molecular target: L. monocytogenes ClpP1, separately overexpressed and purified (ClpP1_(7)) (L. monocytogenes); assay: SEC + other: intact protein mass spectrometry
[5] = molecular target: L. monocytogenes ClpP2, separately overexpressed and purified (ClpP2_(14)) (L. monocytogenes); assay: SEC + other: intact protein mass spectrometry
[6] = molecular target: L. monocytogenes ClpP2 of the co-expressed ClpP1/2 preparation (L. monocytogenes); assay: SEC

ClpP1, endogenous in L. monocytogenes (enzyme)
fold enrichment at 42 °C over 20 °C [1]: 6 fold

L. monocytogenes ClpP1 of the co-expressed ClpP1/2 preparation (enzyme)
stoichiometry N [2]: 7

L. monocytogenes ClpP1, separately overexpressed and purified (ClpP1_(7)) (enzyme)
stoichiometry N [3]: 7
stoichiometry N [4]: 7
percent ClpP1 in the tetradecamer peak [5]: 40 to 44%

L. monocytogenes ClpP2 of the co-expressed ClpP1/2 preparation (enzyme)
stoichiometry N [6]: 14

L. monocytogenes ClpP2, separately overexpressed and purified (ClpP2_(14)) (enzyme)
stoichiometry N [5]: 14
